Reference: patent US12630600B2 (MEDIMMUNE LIMITED, priority 2022, dated 2026)
Starred links: 1 amine or outer side, 2 acyl side, 3 side chain; linkers in the order of their positions; H or OH if unused. Non-standard residues stand in square brackets, D forms with d. Groups on a side chain read outwards from the residue. No end group written: not given here. *: point of attachment. C18 diacid = O=C(O)CCCCCCCCCCCCCCCCC(=O)*; γGlu = O=C(O)[C@H](CCC(=O)[*:2])N[*:1]; αMeF = C[C@](N)(Cc1ccccc1)C(=O)O; AEEA = NCCOCCOCC(=O)O; Aib = CC(C)(N)C(=O)O

B1: Peptide 430 (peptide)
peptide: H[Aib]QGTFTSDVSK[αMeF]LDSK([AEEA-AEEA-γGlu-γGlu-C18 diacid])RAQDFVRWLEA[Aib]G-NH2
modifications: N-terminus assumed
SMILES: CC(C)C[C@H](NC(=O)[C@H](Cc1c[nH]c2ccccc12)NC(=O)[C@H](CCCNC(=N)N)NC(=O)[C@@H](NC(=O)[C@H](Cc1ccccc1)NC(=O)[C@H](CC(=O)O)NC(=O)[C@H](CCC(N)=O)NC(=O)[C@H](C)NC(=O)[C@H](CCCNC(=N)N)NC(=O)[C@H](CCCCNC(=O)COCCOCCNC(=O)COCCOCCNC(=O)CC[C@H](NC(=O)CC[C@H](NC(=O)CCCCCCCCCCCCCCCCC(=O)O)C(=O)O)C(=O)O)NC(=O)[C@H](CO)NC(=O)[C@H](CC(=O)O)NC(=O)[C@H](CC(C)C)NC(=O)[C@](C)(Cc1ccccc1)NC(=O)[C@H](CCCCN)NC(=O)[C@H](CO)NC(=O)[C@@H](NC(=O)[C@H](CC(=O)O)NC(=O)[C@H](CO)NC(=O)[C@@H](NC(=O)[C@H](Cc1ccccc1)NC(=O)[C@@H](NC(=O)CNC(=O)[C@H](CCC(N)=O)NC(=O)C(C)(C)NC(=O)[C@@H](N)Cc1c[nH]cn1)[C@@H](C)O)[C@@H](C)O)C(C)C)C(C)C)C(=O)N[C@@H](CCC(=O)O)C(=O)N[C@@H](C)C(=O)NC(C)(C)C(=O)NCC(N)=O
B2: Peptide 431 (peptide)
peptide: H[Aib]QGTFTSDVSK[αMeF]LDTK([AEEA-AEEA-γGlu-γGlu-C18 diacid])RAQDFVAWLEA[Aib]G-NH2
modifications: N-terminus assumed
SMILES: CC(C)C[C@H](NC(=O)[C@H](Cc1c[nH]c2ccccc12)NC(=O)[C@H](C)NC(=O)[C@@H](NC(=O)[C@H](Cc1ccccc1)NC(=O)[C@H](CC(=O)O)NC(=O)[C@H](CCC(N)=O)NC(=O)[C@H](C)NC(=O)[C@H](CCCNC(=N)N)NC(=O)[C@H](CCCCNC(=O)COCCOCCNC(=O)COCCOCCNC(=O)CC[C@H](NC(=O)CC[C@H](NC(=O)CCCCCCCCCCCCCCCCC(=O)O)C(=O)O)C(=O)O)NC(=O)[C@@H](NC(=O)[C@H](CC(=O)O)NC(=O)[C@H](CC(C)C)NC(=O)[C@](C)(Cc1ccccc1)NC(=O)[C@H](CCCCN)NC(=O)[C@H](CO)NC(=O)[C@@H](NC(=O)[C@H](CC(=O)O)NC(=O)[C@H](CO)NC(=O)[C@@H](NC(=O)[C@H](Cc1ccccc1)NC(=O)[C@@H](NC(=O)CNC(=O)[C@H](CCC(N)=O)NC(=O)C(C)(C)NC(=O)[C@@H](N)Cc1c[nH]cn1)[C@@H](C)O)[C@@H](C)O)C(C)C)[C@@H](C)O)C(C)C)C(=O)N[C@@H](CCC(=O)O)C(=O)N[C@@H](C)C(=O)NC(C)(C)C(=O)NCC(N)=O
B3: Peptide 429 (peptide)
peptide: H[Aib]QGTFTSDVSK[αMeF]LDSK([AEEA-AEEA-γGlu-C18 diacid])RAQDFVRWLEA[Aib]G-NH2
modifications: N-terminus assumed
SMILES: CC(C)C[C@H](NC(=O)[C@H](Cc1c[nH]c2ccccc12)NC(=O)[C@H](CCCNC(=N)N)NC(=O)[C@@H](NC(=O)[C@H](Cc1ccccc1)NC(=O)[C@H](CC(=O)O)NC(=O)[C@H](CCC(N)=O)NC(=O)[C@H](C)NC(=O)[C@H](CCCNC(=N)N)NC(=O)[C@H](CCCCNC(=O)COCCOCCNC(=O)COCCOCCNC(=O)CC[C@H](NC(=O)CCCCCCCCCCCCCCCCC(=O)O)C(=O)O)NC(=O)[C@H](CO)NC(=O)[C@H](CC(=O)O)NC(=O)[C@H](CC(C)C)NC(=O)[C@](C)(Cc1ccccc1)NC(=O)[C@H](CCCCN)NC(=O)[C@H](CO)NC(=O)[C@@H](NC(=O)[C@H](CC(=O)O)NC(=O)[C@H](CO)NC(=O)[C@@H](NC(=O)[C@H](Cc1ccccc1)NC(=O)[C@@H](NC(=O)CNC(=O)[C@H](CCC(N)=O)NC(=O)C(C)(C)NC(=O)[C@@H](N)Cc1c[nH]cn1)[C@@H](C)O)[C@@H](C)O)C(C)C)C(C)C)C(=O)N[C@@H](CCC(=O)O)C(=O)N[C@@H](C)C(=O)NC(C)(C)C(=O)NCC(N)=O

biological target: human GLP-1 receptor (human, UniProt P43220); assay: cell-based or functional assay

First: B1
Second: B2
The “cAMP production EC50” value of the first is 1.8-fold lower: 24.4 pM for the first, 44.6 pM for the second.

B3 was tested, and the “cAMP production EC50” value was 15 pM.

biological target: human glucagon receptor (human, UniProt P47871); assay: cell-based or functional assay

B1 and B2 are within 1.5-fold of each other in “cAMP production EC50” value: 160 pM for the first, 194 pM for the second.

With B3 the “cAMP production EC50” value was 144 pM.
